Target: cytosolic PAS domain (PASc) of the bacterial citrate sensor histidine kinase (CitA)
Experiment: MINFLUX fluorescence nanoscopy

“cytosolic PAS domain (PASc) of the bacterial citrate sensor histidine kinase (CitA) (domain or fragment)” was tested. Which stoichiometry N did it give?
The stoichiometry N was 2.
